Earlier results, collected in paper PMC7287924.

Target: CD47 (Homo sapiens) (UniProt Q08722)
Sequence (Q08722 19-323): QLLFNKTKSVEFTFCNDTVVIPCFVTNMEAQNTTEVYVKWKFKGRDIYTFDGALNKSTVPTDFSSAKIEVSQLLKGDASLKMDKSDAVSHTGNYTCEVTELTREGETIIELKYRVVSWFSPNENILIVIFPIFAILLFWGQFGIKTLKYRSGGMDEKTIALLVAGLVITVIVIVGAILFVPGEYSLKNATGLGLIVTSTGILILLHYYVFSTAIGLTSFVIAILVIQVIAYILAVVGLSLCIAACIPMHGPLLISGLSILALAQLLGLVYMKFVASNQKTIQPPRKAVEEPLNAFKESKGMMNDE

Chain of TSP1 (P07996 19-1170): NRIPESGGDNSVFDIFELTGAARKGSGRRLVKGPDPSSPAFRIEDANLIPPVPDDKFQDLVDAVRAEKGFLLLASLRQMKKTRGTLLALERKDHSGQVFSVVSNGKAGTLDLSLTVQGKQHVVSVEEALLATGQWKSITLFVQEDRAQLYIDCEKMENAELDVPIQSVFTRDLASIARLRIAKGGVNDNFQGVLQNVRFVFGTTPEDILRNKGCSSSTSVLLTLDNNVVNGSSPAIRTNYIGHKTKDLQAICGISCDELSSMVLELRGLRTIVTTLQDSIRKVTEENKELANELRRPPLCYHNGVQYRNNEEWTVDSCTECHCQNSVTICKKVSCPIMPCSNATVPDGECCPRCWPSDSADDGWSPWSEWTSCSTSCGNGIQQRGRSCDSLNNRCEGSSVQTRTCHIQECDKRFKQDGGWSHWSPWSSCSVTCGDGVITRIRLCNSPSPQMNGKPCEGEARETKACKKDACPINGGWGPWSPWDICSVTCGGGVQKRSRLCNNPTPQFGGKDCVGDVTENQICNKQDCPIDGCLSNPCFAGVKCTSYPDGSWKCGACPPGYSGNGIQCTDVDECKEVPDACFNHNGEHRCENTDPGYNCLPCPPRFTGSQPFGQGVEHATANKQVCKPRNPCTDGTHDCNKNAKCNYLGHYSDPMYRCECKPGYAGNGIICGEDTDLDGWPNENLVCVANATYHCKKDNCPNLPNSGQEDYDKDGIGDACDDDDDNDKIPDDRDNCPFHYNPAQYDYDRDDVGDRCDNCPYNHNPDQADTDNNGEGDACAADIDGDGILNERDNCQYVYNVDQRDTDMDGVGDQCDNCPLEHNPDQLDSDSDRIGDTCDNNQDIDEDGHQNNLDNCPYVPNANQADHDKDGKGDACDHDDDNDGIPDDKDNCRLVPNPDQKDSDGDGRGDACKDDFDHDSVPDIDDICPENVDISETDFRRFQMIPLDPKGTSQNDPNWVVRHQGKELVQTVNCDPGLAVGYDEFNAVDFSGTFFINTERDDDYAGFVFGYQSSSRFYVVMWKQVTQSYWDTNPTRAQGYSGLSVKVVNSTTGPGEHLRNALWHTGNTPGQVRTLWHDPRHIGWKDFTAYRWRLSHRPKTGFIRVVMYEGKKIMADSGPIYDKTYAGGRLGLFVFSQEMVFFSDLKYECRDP

Kd: 0.01 nM
Substance: TSP1 (from UniProt P07996)
